T1: Cdc12(FH1) (fission yeast, UniProt Q10059 740-972)
T1 sequence: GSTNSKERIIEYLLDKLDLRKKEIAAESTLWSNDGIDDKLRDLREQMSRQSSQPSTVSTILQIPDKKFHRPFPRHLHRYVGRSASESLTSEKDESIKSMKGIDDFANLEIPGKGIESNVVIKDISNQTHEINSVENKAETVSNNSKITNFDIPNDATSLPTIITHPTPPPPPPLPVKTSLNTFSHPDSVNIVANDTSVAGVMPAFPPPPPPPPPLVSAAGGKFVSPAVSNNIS

B1: budding yeast profilin ScPFY (wild type) (natural protein)
chain: MSWQAYTDNLIGTGKVDKAVIYSRAGDAVWATSGGLSLQPNEIGEIVQGFDNPAGLQSNGLHIQGQKFMLLRADDRSIYGRHDAEGVVCVRTKQTVIIAHYPPTVQAGEATKIVEQLADYLIGVQY
B2: Cdc12(FH1) (domain or fragment)
chain: T1 sequence

What was measured:
Experiment in all cases: other fluorescence titration
[1] = target: ScPFY(9-Mut) (Saccharomyces cerevisiae) (UniProt P07274)
[2] = target: fission yeast profilin SpPRF (S. pombe) (UniProt P39825)
[3] = target: budding yeast profilin ScPFY (wild type) (Saccharomyces cerevisiae) (UniProt P07274)
Cdc12(FH1) = target: T1, Cdc12(FH1)

Chain of fission yeast profilin SpPRF (S. pombe) (P39825 whole entry): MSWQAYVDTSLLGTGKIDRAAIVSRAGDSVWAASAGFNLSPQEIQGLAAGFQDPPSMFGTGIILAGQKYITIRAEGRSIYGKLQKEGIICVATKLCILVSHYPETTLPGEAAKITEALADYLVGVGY

Molecule	Kd [1] [µM]	Kd [2] [µM]	Kd [3] [µM]	Kd (Cdc12(FH1)) [µM]
poly-L-proline (peptide)	195	59	224	–
B1	–	–	–	24.7
B2	22.7	–	–	–

Reference: publication PMC4294675 (Molecular Biology of the Cell, 2015)
